This passage reports percent of B cells positive and percent of erythroid cells positive results from US20240268361A1.

The target in assay [1] is humanized TFR1 protein (engineered mouse TFR1 after humanization) (chimeric mouse/human) (UniProt P02786). Nature of the assay: flow cytometry, B cells of TFR1 gene humanized heterozygous mouse (carry both mouse and humanized TFR1) stained with APC anti-human CD71.
Assay [2] addresses mouse TFR1 (NP_035768.1) (mouse) (UniProt Q62351). In words: flow cytometry, C57BL/6 wild-type bone marrow erythroid cells stained with APC anti-human CD71. In general terms: In flow cytometry, cells or beads pass a laser one at a time.
Chain of UniProt Q62351 (Q62351 whole entry): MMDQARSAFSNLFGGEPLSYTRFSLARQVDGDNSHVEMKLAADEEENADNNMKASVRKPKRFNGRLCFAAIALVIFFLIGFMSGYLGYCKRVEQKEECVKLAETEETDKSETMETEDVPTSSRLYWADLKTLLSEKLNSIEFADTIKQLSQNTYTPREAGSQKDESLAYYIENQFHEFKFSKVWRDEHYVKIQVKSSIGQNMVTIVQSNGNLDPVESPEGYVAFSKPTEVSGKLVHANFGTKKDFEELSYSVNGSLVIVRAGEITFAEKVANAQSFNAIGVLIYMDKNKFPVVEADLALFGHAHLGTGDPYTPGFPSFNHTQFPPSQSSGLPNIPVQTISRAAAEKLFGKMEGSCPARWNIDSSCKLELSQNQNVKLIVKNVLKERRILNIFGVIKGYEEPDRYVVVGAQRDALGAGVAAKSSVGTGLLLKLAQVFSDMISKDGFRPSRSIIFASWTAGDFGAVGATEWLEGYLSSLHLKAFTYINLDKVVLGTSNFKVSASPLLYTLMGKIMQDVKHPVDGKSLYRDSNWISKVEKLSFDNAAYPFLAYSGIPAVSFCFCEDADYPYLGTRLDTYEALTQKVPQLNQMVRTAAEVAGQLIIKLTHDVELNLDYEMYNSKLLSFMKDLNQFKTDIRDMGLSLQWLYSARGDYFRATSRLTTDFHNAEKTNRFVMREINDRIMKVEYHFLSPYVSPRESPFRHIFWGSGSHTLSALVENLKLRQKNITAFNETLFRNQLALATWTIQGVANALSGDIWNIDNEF
The target of assay [3] is humanized TFR1 protein (engineered mouse TFR1 after humanization) (chimeric mouse/human) (UniProt P02786). In words: flow cytometry, bone marrow erythroid cells of TFR1 gene humanized homozygous mouse stained with APC anti-human CD71.
Assay [4] has as its target mouse TFR1 (NP_035768.1) (mouse) (UniProt Q62351). Nature of the assay: flow cytometry, C57BL/6 wild-type mouse B cells stained with APC anti-human CD71.
The target in assay [5] is humanized TFR1 protein (engineered mouse TFR1 after humanization) (chimeric mouse/human) (UniProt P02786). Nature of the assay: flow cytometry, bone marrow erythroid cells of TFR1 gene humanized homozygous mouse stained with PE anti-mouse CD71.
The target in assay [6] is mouse TFR1 (NP_035768.1) (mouse) (UniProt Q62351). In words: flow cytometry, C57BL/6 wild-type bone marrow erythroid cells stained with PE anti-mouse CD71.
For assay [7] the target is unchanged. In words: flow cytometry, B cells of TFR1 gene humanized heterozygous mouse (carry both mouse and humanized TFR1) stained with PE anti-mouse CD71.
Assay [8] has the same target. In words: flow cytometry, C57BL/6 wild-type mouse B cells stained with PE anti-mouse CD71.

Chain of UniProt P02786 (P02786 other isoform, or with tags, fused parts or gaps mutant): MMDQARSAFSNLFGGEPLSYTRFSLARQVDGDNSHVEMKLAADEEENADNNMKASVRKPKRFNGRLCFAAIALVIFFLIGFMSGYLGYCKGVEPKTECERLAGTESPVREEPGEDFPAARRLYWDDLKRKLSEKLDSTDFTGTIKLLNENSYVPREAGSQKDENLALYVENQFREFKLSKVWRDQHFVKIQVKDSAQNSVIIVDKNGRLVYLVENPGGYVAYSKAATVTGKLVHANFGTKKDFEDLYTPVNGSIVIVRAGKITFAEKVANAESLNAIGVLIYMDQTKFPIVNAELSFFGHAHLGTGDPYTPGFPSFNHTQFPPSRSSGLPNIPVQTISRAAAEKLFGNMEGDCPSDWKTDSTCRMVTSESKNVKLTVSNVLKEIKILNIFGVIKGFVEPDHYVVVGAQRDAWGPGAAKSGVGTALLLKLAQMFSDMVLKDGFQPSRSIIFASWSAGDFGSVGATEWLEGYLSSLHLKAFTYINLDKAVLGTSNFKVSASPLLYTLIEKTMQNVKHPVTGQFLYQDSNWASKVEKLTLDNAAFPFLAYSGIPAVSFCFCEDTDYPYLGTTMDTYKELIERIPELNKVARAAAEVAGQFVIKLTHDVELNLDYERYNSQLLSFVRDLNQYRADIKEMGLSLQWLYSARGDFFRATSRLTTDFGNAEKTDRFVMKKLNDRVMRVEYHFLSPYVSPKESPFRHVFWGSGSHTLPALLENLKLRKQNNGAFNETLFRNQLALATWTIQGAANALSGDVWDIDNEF

As for “APC anti-human CD71 Antibody (BioLegend, Catalog number: 334107)”, the percent of B cells positive in assay [1] was 11.3%; in assay [4], 0.2%. In addition, the results for the percent of erythroid cells positive in assay [2] and in assay [3] were 0.087% and 10.1%, respectively.
Regarding “PE anti-mouse CD71 Antibody (BioLegend, Catalog number: 113807)”, the percent of erythroid cells positive in assay [5] came out at 0.04%; in assay [6], 14.2%. Moreover, the values for the percent of B cells positive in assay [7] and in assay [8] were 32.9% and 50.6%, respectively.
